Data as given in article PMC12797002, “Hydrophobic residues in the α‐synuclein NAC domain drive seed‐competent fibril formation and are targeted by peptide inhibitors” (The Febs Journal, 2025).

Assays:
[1] = target: the molecule itself; assay: ANS fluorescence aggregation kinetics; 100 μM NAC peptide, 40 μM ANS, 1× PBS at acidic (pH 4.2 in the methods, 4.5 in the legend), neutral (7.2) or basic (8.0) pH, 37 °C, 1000 rpm
[2] = target: the molecule itself; assay: co-sedimentation; 100 μM NAC peptide incubated 48 h without ThT, centrifuged at 65 000 g for 1 h; UV–Vis spectra (400–600 nm) of soluble and insoluble fractions

Protein | binding result [1] | binding result [2]
GAVVTGVTAVA (peptide, UniProt P37840 68-78, looked up, alpha-synuclein, residues 68-78 (NAC residues 8-18); also called NACore; αSyn 68–78; source: synthetic peptide (GenScript Biotech, purity ≥ 95%)) [NAC11] | binds | 
VTNVGGAVVTGVTAVA (peptide, UniProt P37840 63-78, looked up, alpha-synuclein, residues 63-78 (NAC residues 3-18); also called αSyn 63–78; source: synthetic peptide (GenScript Biotech, purity ≥ 95%)) [NAC16] |  | binds
